Reference: patent US7445894B2, “Compositions and methods for detection and isolation of phosphorylated molecules” (priority 2002, dated 2008)
One block for each substance: values may come before it.

What was measured:
[1] = system: Bovine muscle myosin light chain
[2] = system: T1, Abl peptide (New England Biolabs), substrate for Abl tyrosine kinase
T1 sequence: EAIYAAPFAKKK

[3] = system: T2, Glycogen synthase 1-10 peptide (Calbiochem)
T2 sequence: PLSRTLSVSS

phosphopeptides = test: Quantitative binding of phosphopeptides using streptavidin ferrofluid particles; conditions: 550 pmoles phosphopeptides, particles saturated with Compound 9, charged with GaCl3, eluted with 0.15 M ammonium hydroxide
Experimental: Quantitative binding of phosphopeptides was accomplished using labeled ferrofluid particles. Streptavidin ferrofluid particles were labeled with Compound 9 until saturated. After washing away unbound dye, the particles were charged with 0.1 M GaCl3, then washed with 0.1 M NaOAc, pH 4.0. 100 μL of magnetic particles (4 mg/mL) was added with standard peptide mix containing 550 picomoles of phosphopeptides. The mixture was incubated for 20 min while gently vortexing. The particles were isolated using a magnetic separator and the resulting supernatant was removed. The beads were washed 2× with 100 μL 100 mM NaOAc, pH 4.0 and the phosphopeptides were eluted with 0.15 M ammonium hydroxide. Greater than 95% of the phosphopeptides (550 pmoles) were isolated.

[4] = biological target: pp60 c-src (pY), phosphorylated form of the pp60 c-src peptide; test: peptide microarray on HydroGel slides; primary antibody, then Zenon One Alexa Fluor 647 mouse IgG labeling reagent; 632.8 nm excitation / 670 nm emission
[5] = biological target: pp60 c-src (pY), phosphorylated form of the pp60 c-src peptide; test: peptide microarray on HydroGel slides; primary antibody at 1.5 µg/mL, then Alexa Fluor 647 goat anti-mouse; 632.8 nm excitation / 670 nm emission
[6] = system: T3, Kemptide (non-phosphorylated)
T3 sequence: LRRASLG

[7] = system: T4, crosstide, biotinylated synthetic peptide
T4 sequence: GRPRTSSFAEG

Chain of Abl Protein Tyrosine Kinase (NEB) (P00520 whole entry): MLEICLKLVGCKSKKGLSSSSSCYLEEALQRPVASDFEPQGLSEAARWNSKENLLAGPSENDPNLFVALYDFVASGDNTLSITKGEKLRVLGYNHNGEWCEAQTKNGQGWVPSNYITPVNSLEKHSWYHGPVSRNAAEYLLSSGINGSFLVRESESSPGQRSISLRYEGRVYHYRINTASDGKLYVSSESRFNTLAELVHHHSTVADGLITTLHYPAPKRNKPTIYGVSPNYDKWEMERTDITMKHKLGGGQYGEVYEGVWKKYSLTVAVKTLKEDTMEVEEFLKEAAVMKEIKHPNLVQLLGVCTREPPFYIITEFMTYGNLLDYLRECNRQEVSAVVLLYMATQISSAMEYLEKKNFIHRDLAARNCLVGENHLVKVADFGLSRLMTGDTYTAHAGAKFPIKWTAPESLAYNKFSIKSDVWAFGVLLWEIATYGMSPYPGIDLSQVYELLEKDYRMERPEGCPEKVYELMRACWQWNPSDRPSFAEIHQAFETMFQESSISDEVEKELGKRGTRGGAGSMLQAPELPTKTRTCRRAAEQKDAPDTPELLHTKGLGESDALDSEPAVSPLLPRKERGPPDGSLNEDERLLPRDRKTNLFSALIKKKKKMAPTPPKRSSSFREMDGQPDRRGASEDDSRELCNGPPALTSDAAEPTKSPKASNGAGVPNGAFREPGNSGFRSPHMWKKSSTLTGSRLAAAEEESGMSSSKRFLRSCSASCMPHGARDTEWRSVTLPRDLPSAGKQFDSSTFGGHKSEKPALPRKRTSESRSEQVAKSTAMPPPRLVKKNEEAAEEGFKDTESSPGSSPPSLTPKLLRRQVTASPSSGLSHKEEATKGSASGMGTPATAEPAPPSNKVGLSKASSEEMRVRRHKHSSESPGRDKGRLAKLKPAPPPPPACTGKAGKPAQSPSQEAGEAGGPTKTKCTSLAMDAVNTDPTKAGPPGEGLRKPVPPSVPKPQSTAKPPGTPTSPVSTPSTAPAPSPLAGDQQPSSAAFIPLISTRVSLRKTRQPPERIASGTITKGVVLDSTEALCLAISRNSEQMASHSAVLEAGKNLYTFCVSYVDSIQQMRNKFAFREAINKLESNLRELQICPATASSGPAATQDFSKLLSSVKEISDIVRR
Chain of Akt/Protein Kinase B (P31749 whole entry): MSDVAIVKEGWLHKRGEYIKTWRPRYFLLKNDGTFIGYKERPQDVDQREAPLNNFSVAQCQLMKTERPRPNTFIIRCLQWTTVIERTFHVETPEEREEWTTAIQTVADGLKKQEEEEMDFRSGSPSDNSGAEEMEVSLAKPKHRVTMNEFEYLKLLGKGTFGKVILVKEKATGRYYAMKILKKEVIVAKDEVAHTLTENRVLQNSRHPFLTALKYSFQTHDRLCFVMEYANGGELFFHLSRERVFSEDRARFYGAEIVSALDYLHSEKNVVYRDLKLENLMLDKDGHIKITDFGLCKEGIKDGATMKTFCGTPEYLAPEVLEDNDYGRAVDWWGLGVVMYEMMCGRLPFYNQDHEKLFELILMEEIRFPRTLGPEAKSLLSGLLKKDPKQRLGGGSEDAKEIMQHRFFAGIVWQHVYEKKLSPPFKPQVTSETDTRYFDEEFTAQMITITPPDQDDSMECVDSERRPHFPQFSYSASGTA

Substance: Calcium-Calmodulin-Dependent protein Kinase II (New England BioLabs)
phosphoprotein stain signal (Compound 2/Ga3+) of the gel band, kinase reaction against no-enzyme control [1]: the signal from the band in the lane corresponding to the reaction containing the enzyme 3.4-fold greater than the no-enzyme control
fluorescent labeling (Compound 2/Ga3+) of arrayed peptide after kinase reaction; Abl peptide not labeled [2]: glycogen synthase peptide is the only fluorescently labeled peptide on the array
fluorescent labeling (Compound 2/Ga3+) of arrayed peptide after kinase reaction [3]: glycogen synthase peptide is the only fluorescently labeled peptide on the array
sensitivity of detection after kinase reaction [3]: Sensitivity of detection after kinase reaction is at least 0.375 ng or 0.35 pmol

phosphopeptides isolated (phosphopeptides): Greater than 95%
Substance: 4-(N-(5″-biotinylaminopentyl)aminocarbonyl)-rhod tetrapotassium salt [Compound 9]

sensitivity of detection [4]: 0.65 pg
sensitivity of detection [5]: 5.2 pg
Substance: phosphotyrosine monoclonal antibody P-Tyr-100 (Cell Signaling Tech.)

Substance: Abl Protein Tyrosine Kinase (NEB)
fluorescent labeling (Compound 2/Ga3+) of arrayed peptide after kinase reaction; Kemptide not labeled [6]: Abl peptide substrate is the only fluorescently labeled peptide on the array
fluorescent labeling (Compound 2/Ga3+) of arrayed peptide after kinase reaction [2]: Abl peptide substrate is the only fluorescently labeled peptide on the array
fluorescent labeling (Compound 2/Ga3+) of arrayed peptide after kinase reaction with ATP-γ-S or ATP [2]: Abl peptide substrate is the only fluorescently labeled peptide on the array
sensitivity of detection after kinase reaction [2]: Sensitivity of detection after kinase reaction is at least 0.18 ng or 0.14 pmol
sensitivity of detection after kinase reaction with ATP (control) [2]: 0.325 pg of Abl peptide, in the control reaction using ATP, was labeled and detected
sensitivity of detection after kinase reaction with ATP-γ-S [2]: Sensitivity of detection after kinase reaction was 2.6 pg of the peptide labeled using ATP-γ-S
fluorescent labeling (Compound 2/Ga3+) of arrayed peptide after kinase reaction; Glycogen Synthase 1-10 not labeled [3]: Abl peptide substrate is the only fluorescently labeled peptide on the array

Substance: Akt/Protein Kinase B
fluorescent signal (Compound 2/Ga3+) of peptide charged beads, exposed to kinase against not exposed [7]: The fluorescent signal of the peptide charged beads exposed to Akt/PKB kinase was found to be 2.2-fold higher, with no overlap in standard deviation, than the control peptide charged beads not exposed to enzyme
